Measured values reported in ChEMBL document CHEMBL2073814, “Involvement of organic cation transporter 1 in hepatic and intestinal distribution of metformin” (J Pharmacol Exp Ther, 2002).

T1: Solute carrier family 22 member 1 (Mus musculus, UniProt O08966)
T1 sequence (O08966 whole entry): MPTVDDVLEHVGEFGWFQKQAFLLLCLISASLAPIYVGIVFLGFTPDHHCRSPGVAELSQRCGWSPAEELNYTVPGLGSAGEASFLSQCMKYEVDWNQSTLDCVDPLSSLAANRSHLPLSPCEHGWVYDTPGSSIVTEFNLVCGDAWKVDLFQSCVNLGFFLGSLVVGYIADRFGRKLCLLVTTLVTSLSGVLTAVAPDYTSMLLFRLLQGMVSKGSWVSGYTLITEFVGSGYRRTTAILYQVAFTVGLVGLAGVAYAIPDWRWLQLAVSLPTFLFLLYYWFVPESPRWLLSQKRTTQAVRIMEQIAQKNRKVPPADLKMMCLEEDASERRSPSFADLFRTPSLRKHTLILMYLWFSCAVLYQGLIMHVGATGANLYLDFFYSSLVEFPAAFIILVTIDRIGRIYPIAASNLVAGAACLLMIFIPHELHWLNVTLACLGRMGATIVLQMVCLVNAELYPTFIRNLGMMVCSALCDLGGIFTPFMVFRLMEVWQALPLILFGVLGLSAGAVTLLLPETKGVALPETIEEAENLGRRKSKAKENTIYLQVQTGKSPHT

B1: Solute carrier family 22 member 1 (Rattus norvegicus) (protein)
chain: MPTVDDVLEQVGEFGWFQKQAFLLLCLISASLAPIYVGIVFLGFTPGHYCQNPGVAELSQRCGWSQAEELNYTVPGLGPSDEASFLSQCMRYEVDWNQSTLDCVDPLSSLVANRSQLPLGPCEHGWVYDTPGSSIVTEFNLVCGDAWKVDLFQSCVNLGFFLGSLVVGYIADRFGRKLCLLVTTLVTSVSGVLTAVAPDYTSMLLFRLLQGMVSKGSWVSGYTLITEFVGSGYRRTTAILYQMAFTVGLVGLAGVAYAIPDWRWLQLAVSLPTFLFLLYYWFVPESPRWLLSQKRTTRAVRIMEQIAQKNGKVPPADLKMLCLEEDASEKRSPSFADLFRTPNLRKHTVILMYLWFSCAVLYQGLIMHVGATGANLYLDFFYSSLVEFPAAFIILVTIDRIGRIYPIAASNLVTGAACLLMIFIPHELHWLNVTLACLGRMGATIVLQMVCLVNAELYPTFIRNLGMMVCSALCDLGGIFTPFMVFRLMEVWQALPLILFGVLGLTAGAMTLLLPETKGVALPETIEEAENLGRRKSKAKENTIYLQVQTGKSSST

Key:
[1] = molecular target: T1, Solute carrier family 22 member 1; assay: TP_TRANSPORTER: decrease in liver concentration in Oct1 -/- mouse; type: functional, organism-based; conditions: in vivo
[2] = molecular target: T1, Solute carrier family 22 member 1; assay: TP_TRANSPORTER: decrease in small intestine concentration in Oct1 -/- mouse; type: functional, organism-based; conditions: in vivo
[3] = substrate: [H]/N=C(/N)N/C(=N/[H])NCCc1ccccc1; assay: (§1) TP_TRANSPORTER: uptake in OCT1-expressing CHO cells; type: functional, cell-based
[4] = substrate: CN(C)C(=N)N=C(N)N; assay: as §1; type: functional, cell-based
[5] = substrate: CCCCNC(=N)NC(=N)N; assay: cells, lysate or membranes named

| Molecule | Activity [1] | Activity [2] | Km [3] [µM] | Km [4] [µM] | Km [5] [µM] |
| --- | --- | --- | --- | --- | --- |
| CN(C)C(=N)N=C(N)N [METFORMIN] | substrate [+] | substrate [+] |  |  |  |
| B1 |  |  | 15.6 | 377 | 48.8 |
